Measured values reported in patent US20230340160A1 (published 2023).

T1: human CEA expressed on tumor cells (human, UniProt P06731 35-702)
T1 sequence (looked up): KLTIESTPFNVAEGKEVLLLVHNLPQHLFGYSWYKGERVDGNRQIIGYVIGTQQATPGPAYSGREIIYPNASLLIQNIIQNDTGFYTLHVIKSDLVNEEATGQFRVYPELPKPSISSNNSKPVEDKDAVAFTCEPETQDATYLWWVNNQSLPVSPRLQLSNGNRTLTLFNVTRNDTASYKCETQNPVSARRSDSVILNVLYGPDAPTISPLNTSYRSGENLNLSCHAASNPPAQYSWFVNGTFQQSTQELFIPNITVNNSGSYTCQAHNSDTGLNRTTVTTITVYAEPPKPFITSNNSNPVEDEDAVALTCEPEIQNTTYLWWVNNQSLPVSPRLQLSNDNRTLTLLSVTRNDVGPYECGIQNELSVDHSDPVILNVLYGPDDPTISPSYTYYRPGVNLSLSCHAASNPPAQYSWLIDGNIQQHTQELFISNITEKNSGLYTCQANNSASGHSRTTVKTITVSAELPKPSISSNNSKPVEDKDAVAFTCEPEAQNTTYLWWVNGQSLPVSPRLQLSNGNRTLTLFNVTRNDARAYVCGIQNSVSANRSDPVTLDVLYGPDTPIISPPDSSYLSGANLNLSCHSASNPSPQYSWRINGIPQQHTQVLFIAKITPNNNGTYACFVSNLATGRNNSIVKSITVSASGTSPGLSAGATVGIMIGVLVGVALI


Tests used:
[1] = molecular target: human MCSP expressed on tumor cells (human, UniProt Q6UVK1 30-2322); assay: cell-based or functional assay
human MCSP expressed on tumor cells, sequence (Q6UVK1 30-2322): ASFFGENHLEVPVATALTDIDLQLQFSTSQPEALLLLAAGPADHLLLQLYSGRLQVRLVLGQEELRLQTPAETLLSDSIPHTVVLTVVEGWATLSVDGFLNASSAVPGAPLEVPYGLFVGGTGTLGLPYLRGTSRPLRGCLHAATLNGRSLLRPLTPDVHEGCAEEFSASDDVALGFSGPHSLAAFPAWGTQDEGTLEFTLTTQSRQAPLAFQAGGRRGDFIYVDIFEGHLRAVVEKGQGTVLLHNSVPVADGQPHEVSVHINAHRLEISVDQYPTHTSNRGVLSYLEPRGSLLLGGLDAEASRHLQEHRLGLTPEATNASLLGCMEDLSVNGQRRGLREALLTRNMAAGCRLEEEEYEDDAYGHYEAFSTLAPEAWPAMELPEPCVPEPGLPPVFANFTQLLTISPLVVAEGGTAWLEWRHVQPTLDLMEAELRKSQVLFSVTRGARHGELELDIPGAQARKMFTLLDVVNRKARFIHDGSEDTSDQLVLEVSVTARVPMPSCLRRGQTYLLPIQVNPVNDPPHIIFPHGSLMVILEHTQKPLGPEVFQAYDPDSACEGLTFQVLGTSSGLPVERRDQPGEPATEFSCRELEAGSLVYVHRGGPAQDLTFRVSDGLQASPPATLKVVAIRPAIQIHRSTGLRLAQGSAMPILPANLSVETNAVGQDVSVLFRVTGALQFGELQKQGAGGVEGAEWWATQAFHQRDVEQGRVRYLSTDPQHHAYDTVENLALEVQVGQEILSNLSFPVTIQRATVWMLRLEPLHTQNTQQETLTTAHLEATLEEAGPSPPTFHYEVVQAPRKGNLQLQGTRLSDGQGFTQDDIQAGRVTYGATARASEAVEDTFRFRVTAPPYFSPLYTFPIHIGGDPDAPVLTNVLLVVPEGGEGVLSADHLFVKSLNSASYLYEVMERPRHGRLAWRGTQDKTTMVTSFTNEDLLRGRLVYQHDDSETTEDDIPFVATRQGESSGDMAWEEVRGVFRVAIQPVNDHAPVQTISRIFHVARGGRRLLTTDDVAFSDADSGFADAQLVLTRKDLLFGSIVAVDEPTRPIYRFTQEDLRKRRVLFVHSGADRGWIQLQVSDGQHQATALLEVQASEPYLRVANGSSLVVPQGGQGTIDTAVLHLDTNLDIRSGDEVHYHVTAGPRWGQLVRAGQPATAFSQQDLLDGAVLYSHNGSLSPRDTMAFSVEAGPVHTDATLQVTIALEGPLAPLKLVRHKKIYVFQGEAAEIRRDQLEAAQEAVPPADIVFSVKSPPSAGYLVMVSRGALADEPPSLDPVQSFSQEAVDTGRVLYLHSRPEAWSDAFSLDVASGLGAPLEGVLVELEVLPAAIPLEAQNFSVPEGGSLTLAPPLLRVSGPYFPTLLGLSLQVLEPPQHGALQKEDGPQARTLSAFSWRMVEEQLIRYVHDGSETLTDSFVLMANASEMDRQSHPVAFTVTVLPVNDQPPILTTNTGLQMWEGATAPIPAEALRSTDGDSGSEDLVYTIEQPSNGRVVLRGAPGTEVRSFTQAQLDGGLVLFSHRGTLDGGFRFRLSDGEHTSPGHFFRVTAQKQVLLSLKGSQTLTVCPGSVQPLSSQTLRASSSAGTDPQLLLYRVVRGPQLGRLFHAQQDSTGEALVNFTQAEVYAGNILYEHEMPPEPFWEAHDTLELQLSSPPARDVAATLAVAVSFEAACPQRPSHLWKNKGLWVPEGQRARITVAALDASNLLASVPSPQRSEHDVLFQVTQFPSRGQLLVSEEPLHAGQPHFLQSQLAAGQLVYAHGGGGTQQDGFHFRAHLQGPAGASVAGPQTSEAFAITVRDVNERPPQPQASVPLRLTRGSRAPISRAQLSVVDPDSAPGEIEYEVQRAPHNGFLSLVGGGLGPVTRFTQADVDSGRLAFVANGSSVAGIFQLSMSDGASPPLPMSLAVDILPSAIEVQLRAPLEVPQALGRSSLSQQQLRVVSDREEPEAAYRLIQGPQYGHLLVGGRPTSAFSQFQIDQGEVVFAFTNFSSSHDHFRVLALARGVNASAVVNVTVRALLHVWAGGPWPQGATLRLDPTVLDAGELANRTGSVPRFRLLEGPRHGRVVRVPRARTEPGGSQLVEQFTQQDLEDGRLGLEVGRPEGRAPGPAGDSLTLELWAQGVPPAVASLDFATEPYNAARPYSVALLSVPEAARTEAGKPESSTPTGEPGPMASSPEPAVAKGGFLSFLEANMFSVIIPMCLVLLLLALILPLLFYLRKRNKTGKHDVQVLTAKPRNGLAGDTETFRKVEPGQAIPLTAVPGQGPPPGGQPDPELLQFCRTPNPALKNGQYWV

[2] = molecular target: T1, human CEA expressed on tumor cells; assay: cell-based or functional assay
[3] = molecular target: T2, human CD3 expressed on Jurkat cells (human, UniProt P07766 23-207); assay: flow cytometry on Jurkat cells
T2 construct: CD3 complex on Jurkat cells (ATCC TIB-152); also called huCD3
T2 sequence (P07766 23-207 limits assumed): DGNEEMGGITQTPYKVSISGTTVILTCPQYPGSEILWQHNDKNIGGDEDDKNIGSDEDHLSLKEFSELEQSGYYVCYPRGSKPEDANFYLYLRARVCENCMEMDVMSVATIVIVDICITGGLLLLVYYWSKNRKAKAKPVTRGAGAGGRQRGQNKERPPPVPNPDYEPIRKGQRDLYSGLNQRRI
Method: Binding of the different bispecific constructs to CD3 on Jurkat cells (ATCC #TIB-152), and the respective tumor antigen on target cells, was determined by FACS. Briefly, cells were harvested, counted and checked for viability. 0.15 - 0.2 million cells per well (in PBS containing 0.1% BSA; 90 µl) were plated in a round-bottom 96-well plate and incubated with the indicated concentration of the bispecific constructs and corresponding IgG controls (10 µl) for 30 min at 4° C. For a better comparison, all constructs and IgG controls were normalized to same molarity. After the incubation, cells were centrifuged (5 min, 350 × g), washed with 150 µl PBS containing 0.1% BSA, resuspended and incubated for further 30 min at 4° C. with 12 µl/well of a FITC-or PE-conjugated secondary antibody. Bound constructs were detected using a FACSCantoII (Software FACS Diva). The “(scFv)₂” molecule was detected using a FITC-conjugated anti-His antibody (Lucerna, #RHIS-45F-Z). For all other molecules, a FITC- or PE-conjugated AffiniPure F(ab′)2 Fragment goat anti-human IgG Fcγ Fragment Specific (Jackson Immuno Research Lab # 109-096-098 / working solution 1:20, or #109-116-170 / working solution 1:80, respectively) was used. Cells were washed by addition of 120 µl/well PBS containing 0.1% BSA and centrifugation at 350 × g for 5 min. A second washing step was performed with 150 µl/well PBS containing 0.1% BSA. Unless otherwise indicated, cells were fixed with 100 µl/well fixation buffer (BD #554655) for 15 min at 4° C. in the dark, centrifuged for 6 min at 400 × g and kept in 200 µl/well PBS containing 0.1% BSA until the samples were measured with FACS CantoII. EC50 values were calculated using the GraphPad Prism software.
As a control, the equivalent maximum concentration of the corresponding IgGs and the background staining due to the labeled 2ndary antibody (goat anti-human FITC-conjugated AffiniPure F(ab′)2 Fragment, Fcγ Fragment-specific, Jackson Immuno Research Lab # 109-096-098) were assessed as well.

| Binder | EC50 of killing (LDH release) of MV-3 cells, human PBMCs, E:T 10:1, 21 h [1] [nM] | EC50 of killing (LDH release) of WM266-4 cells, human PBMCs, E:T 10:1, 21 h [1] [nM] | EC50 of killing (LDH release) of MV-3 cells, human PBMCs, E:T 10:1, 27 h [1] [nM] | EC50 of killing (LDH release) of WM266-4 cells, human PBMCs, E:T 10:1, 26 h [1] [nM] | also measured |
| --- | --- | --- | --- | --- | --- |
| CD3/MCSP “1+1 IgG Crossfab”; VL/VH exchange (LC007/V9) (bispecific antibody) heavy: DIQMTQSPSSLSASVGDRVTITCRASQDIRNYLNWYQQKPGKAPKLLIYYTSRLESGVPSRFSGSGSGTDYTLTISSLQPEDFATYYCQQGNTLPWTFGQGTKVEIKSSASTKGPSVFPLAPSSKSTSGGTAALGCLVKDYFPEPVTVSWNSGALTSGVHTFPAVLQSSGLYSLSSVVTVPSSSLGTQTYICNVNHKPSNTKVDKKVEPKSCGGGGSGGGGSEVQLQESGPGLVKPSQSLSLTCSVTGYSITSGYYWNWIRQFPGNKLEWMGYITYDGSNNYNPSLKNRISITRDTSKNQFFLKLNSVTTEDTATYYCADFDYWGQGTTLTVSSASTKGPSVFPLAPSSKSTSGGTAALGCLVKDYFPEPVTVSWNSGALTSGVHTFPAVLQSSGLYSLSSVVTVPSSSLGTQTYICNVNHKPSNTKVDKKVEPKSCDKTHTCPPCPAPEAAGGPSVFLFPPKPKDTLMISRTPEVTCVVVDVSHEDPEVKFNWYVDGVEVHNAKTKPREEQYNSTYRVVSVLTVLHQDWLNGKEYKCKVSNKALGAPIEKTISKAKGQPREPQVCTLPPSRDELTKNQVSLSCAVKGFYPSDIAVEWESNGQPENNYKTTPPVLDSDGSFFLVSKLTVDKSRWQQGNVFSCSVMHEALHNHYTQKSLSLSPGK not shown light 1: DIVLTQSPSSLSASLGDRVTISCSASQGIRNYLNWYQQRPDGTVKLLIYYTSSLHSGVPSRFSGSGSGTDYSLTISNLEPEDIATYYCQQYSKLPWTFGGGTKLEIKRTVAAPSVFIFPPSDEQLKSGTASVVCLLNNFYPREAKVQWKVDNALQSGNSQESVTEQDSKDSTYSLSSTLTLSKADYEKHKVYACEVTHQGLSSPVTKSFNRGEC light 2: EVQLVESGGGLVQPGGSLRLSCAASGYSFTGYTMNWVRQAPGKGLEWVALINPYKGVSTYNQKFKDRFTISVDKSKNTAYLQMNSLRAEDTAVYYCARSGYYGDSDWYFDVWGQGTLVTVSSASVAAPSVFIFPPSDEQLKSGTASVVCLLNNFYPREAKVQWKVDNALQSGNSQESVTEQDSKDSTYSLSSTLTLSKADYEKHKVYACEVTHQGLSSPVTKSFNRGEC | 0.0409 | 0.0284 | – | – | – |
| “2+1 IgG Crossfab (CL/CH1)”; CL/CH1 exchange (M4-3 ML2/V9) (bispecific antibody) heavy 1: not shown heavy 2: QVQLQESGPGLVKPSQTLSLTCTVSGGSITSGYYWNWIRQHPGKGLEWIGYITYDGSNNYNPSLKSRVTISRDTSKNQFSLKLSSVTAADTAVYYCADFDYWGQGTLVTVSSASTKGPSVFPLAPSSKSTSGGTAALGCLVKDYFPEPVTVSWNSGALTSGVHTFPAVLQSSGLYSLSSVVTVPSSSLGTQTYICNVNHKPSNTKVDKKVEPKSCDKTHTCPPCPAPEAAGGPSVFLFPPKPKDTLMISRTPEVTCVVVDVSHEDPEVKFNWYVDGVEVHNAKTKPREEQYNSTYRVVSVLTVLHQDWLNGKEYKCKVSNKALGAPIEKTISKAKGQPREPQVCTLPPSRDELTKNQVSLSCAVKGFYPSDIAVEWESNGQPENNYKTTPPVLDSDGSFFLVSKLTVDKSRWQQGNVFSCSVMHEALHNHYTQKSLSLSPGK light 1: not shown light 2: DIQMTQSPSSLSASVGDRVTITCRASQDIRNYLNWYQQKPGKAPKLLIYYTSRLESGVPSRFSGSGSGTDYTLTISSLQPEDFATYYCQQGNTLPWTFGQGTKVEIKSSASTKGPSVFPLAPSSKSTSGGTAALGCLVKDYFPEPVTVSWNSGALTSGVHTFPAVLQSSGLYSLSSVVTVPSSSLGTQTYICNVNHKPSNTKVDKKVEPKSC | – | – | ~0.0117 | 0.0129 | – |
| CD3/MCSP “1+1 CrossMab”; CL/CH1 exchange (LC007/V9) (bispecific antibody, human IgG1, kappa, L234A L235A) heavy 1: not shown heavy 2: EVQLQESGPGLVKPSQSLSLTCSVTGYSITSGYYWNWIRQFPGNKLEWMGYITYDGSNNYNPSLKNRISITRDTSKNQFFLKLNSVTTEDTATYYCADFDYWGQGTTLTVSSASTKGPSVFPLAPSSKSTSGGTAALGCLVKDYFPEPVTVSWNSGALTSGVHTFPAVLQSSGLYSLSSVVTVPSSSLGTQTYICNVNHKPSNTKVDKKVEPKSCDKTHTCPPCPAPEAAGGPSVFLFPPKPKDTLMISRTPEVTCVVVDVSHEDPEVKFNWYVDGVEVHNAKTKPREEQYNSTYRVVSVLTVLHQDWLNGKEYKCKVSNKALGAPIEKTISKAKGQPREPQVCTLPPSRDELTKNQVSLSCAVKGFYPSDIAVEWESNGQPENNYKTTPPVLDSDGSFFLVSKLTVDKSRWQQGNVFSCSVMHEALHNHYTQKSLSLSPGK light 1: DIVLTQSPSSLSASLGDRVTISCSASQGIRNYLNWYQQRPDGTVKLLIYYTSSLHSGVPSRFSGSGSGTDYSLTISNLEPEDIATYYCQQYSKLPWTFGGGTKLEIKRTVAAPSVFIFPPSDEQLKSGTASVVCLLNNFYPREAKVQWKVDNALQSGNSQESVTEQDSKDSTYSLSSTLTLSKADYEKHKVYACEVTHQGLSSPVTKSFNRGEC light 2: DIQMTQSPSSLSASVGDRVTITCRASQDIRNYLNWYQQKPGKAPKLLIYYTSRLESGVPSRFSGSGSGTDYTLTISSLQPEDFATYYCQQGNTLPWTFGQGTKVEIKSSASTKGPSVFPLAPSSKSTSGGTAALGCLVKDYFPEPVTVSWNSGALTSGVHTFPAVLQSSGLYSLSSVVTVPSSSLGTQTYICNVNHKPSNTKVDKKVEPKSC | 0.0884 | 0.0539 | – | – | – |
| “2+1 IgG Crossfab (VL/VH)”; VL/VH exchange (M4-3 ML2/V9) (bispecific antibody) heavy 1: not shown heavy 2: QVQLQESGPGLVKPSQTLSLTCTVSGGSITSGYYWNWIRQHPGKGLEWIGYITYDGSNNYNPSLKSRVTISRDTSKNQFSLKLSSVTAADTAVYYCADFDYWGQGTLVTVSSASTKGPSVFPLAPSSKSTSGGTAALGCLVKDYFPEPVTVSWNSGALTSGVHTFPAVLQSSGLYSLSSVVTVPSSSLGTQTYICNVNHKPSNTKVDKKVEPKSCDKTHTCPPCPAPEAAGGPSVFLFPPKPKDTLMISRTPEVTCVVVDVSHEDPEVKFNWYVDGVEVHNAKTKPREEQYNSTYRVVSVLTVLHQDWLNGKEYKCKVSNKALGAPIEKTISKAKGQPREPQVCTLPPSRDELTKNQVSLSCAVKGFYPSDIAVEWESNGQPENNYKTTPPVLDSDGSFFLVSKLTVDKSRWQQGNVFSCSVMHEALHNHYTQKSLSLSPGK light 1: not shown light 2: EVQLVESGGGLVQPGGSLRLSCAASGYSFTGYTMNWVRQAPGKGLEWVALINPYKGVSTYNQKFKDRFTISVDKSKNTAYLQMNSLRAEDTAVYYCARSGYYGDSDWYFDVWGQGTLVTVSSASVAAPSVFIFPPSDEQLKSGTASVVCLLNNFYPREAKVQWKVDNALQSGNSQESVTEQDSKDSTYSLSSTLTLSKADYEKHKVYACEVTHQGLSSPVTKSFNRGEC | – | – | ~0.0822 | 0.0168 | – |
| “1+1 IgG Crossfab light chain (LC) fusion” (CH1A1A/V9) (bispecific antibody, also called 1+1 IgG Crossfab LC fusion) heavy: not shown DKTHTCPPCPAPEAAGGPSVFLFPPKPKDTLMISRTPEVTCVVVDVSHEDPEVKFNWYVDGVEVHNAKTKPREEQYNSTYRVVSVLTVLHQDWLNGKEYKCKVSNKALGAPIEKTISKAKGQPREPQVCTLPPSRDELTKNQVSLSCAVKGFYPSDIAVEWESNGQPENNYKTTPPVLDSDGSFFLVSKLTVDKSRWQQGNVFSCSVMHEALHNHYTQKSLSLSPGK light 1: DIQMTQSPSSLSASVGDRVTITCKASAAVGTYVAWYQQKPGKAPKLLIYSASYRKRGVPSRFSGSGSGTDFTLTISSLQPEDFATYYCHQYYTYPLFTFGQGTKLEIKRTVAAPSVFIFPPSDEQLKSGTASVVCLLNNFYPREAKVQWKVDNALQSGNSQESVTEQDSKDSTYSLSSTLTLSKADYEKHKVYACEVTHQGLSSPVTKSFNRGECGGGGSGGGGSGGGGSGGGGSEVQLVESGGGLVQPGGSLRLSCAASGYSFTGYTMNWVRQAPGKGLEWVALINPYKGVSTYNQKFKDRFTISVDKSKNTAYLQMNSLRAEDTAVYYCARSGYYGDSDWYFDVWGQGTLVTVSSASVAAPSVFIFPPSDEQLKSGTASVVCLLNNFYPREAKVQWKVDNALQSGNSQESVTEQDSKDSTYSLSSTLTLSKADYEKHKVYACEVTHQGLSSPVTKSFNRGEC light 2: DIQMTQSPSSLSASVGDRVTITCRASQDIRNYLNWYQQKPGKAPKLLIYYTSRLESGVPSRFSGSGSGTDYTLTISSLQPEDFATYYCQQGNTLPWTFGQGTKVEIKSSASTKGPSVFPLAPSSKSTSGGTAALGCLVKDYFPEPVTVSWNSGALTSGVHTFPAVLQSSGLYSLSSVVTVPSSSLGTQTYICNVNHKPSNTKVDKKVEPKSC | – | – | – | – | EC50 of killing (LDH release) of LS-174T cells, human PBMCs, E:T 10:1, 28 h [2]: 1.56 nM; EC50 of killing (LDH release) of MC38-huCEA cells, human PBMCs, E:T 10:1, 24 h [2]: ~3.2 nM; EC50 of killing (LDH release) of MKN-45 cells, human PBMCs, E:T 10:1, 28 h [2]: 0.213 nM; binding result [3]: binds |
